In doi:10.1101/2021.11.17.468837 one finds stoichiometry N data, which are given here for 1 substance.

This assay has as its target cyAbrB1 (Sll0359), N-terminally 6*His-tagged recombinant protein (Synechocystis sp. PCC 6803). Put plainly: native gel or EMSA. A general note: Mobility shift assays separate free from complexed probe on a gel.

As to “cyAbrB1 (Sll0359), N-terminally 6*His-tagged recombinant protein (natural protein)”, the stoichiometry N (as a rule, the number of molecules, sites or subunits per partner or assembly) was 2.
